Tests used:
Human VPAC1 Receptor = target: T1, Human VPAC1 Receptor (Homo sapiens, UniProt P32241); test: Filter binding assay, 125I-labeled VIP, membranes of cells transiently transfected with human VPAC1; settings: 125I-labeled VIP tracer
T1 construct: expressed in transfected cells
T1 sequence (P32241 31-457): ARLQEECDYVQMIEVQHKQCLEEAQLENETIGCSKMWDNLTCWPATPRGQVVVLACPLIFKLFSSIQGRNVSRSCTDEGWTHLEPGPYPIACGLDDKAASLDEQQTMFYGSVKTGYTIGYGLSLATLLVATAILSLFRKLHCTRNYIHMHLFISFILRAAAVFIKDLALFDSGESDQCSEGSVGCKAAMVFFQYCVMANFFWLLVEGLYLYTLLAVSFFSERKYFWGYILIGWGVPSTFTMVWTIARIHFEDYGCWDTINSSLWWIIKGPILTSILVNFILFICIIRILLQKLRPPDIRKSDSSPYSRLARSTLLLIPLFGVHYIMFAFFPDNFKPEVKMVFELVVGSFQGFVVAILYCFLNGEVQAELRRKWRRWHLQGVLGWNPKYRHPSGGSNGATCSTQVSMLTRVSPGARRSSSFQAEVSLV
Method: For this assay, the solutions and equipment include:
Presoak solution: 0.5% Polyethyleneamine in Aqua dest
Buffer for flushing filter plates: 25 mM HEPES pH 7.4
Blocking buffer: 25 mM HEPES pH 7.4; 0.2% protease free BSA
Assay buffer: 25 mM HEPES pH 7.4; 0.5% protease free BSA
Dilution and assay plate: PS-Microplate, U form
Filtration Plate Multiscreen FB Opaque Plate; […] Type B Glasfiber filter
In order to prepare the filter plates, the presoak solution is aspirated by vacuum filtration. The plates are flushed twice with 200 μL flush buffer. 200 μL blocking buffer is added to the filter plate. The filter plate is then incubated with 200 μL presoak solution for 1 hour at room temperature.
The assay plate is filled with 25 μL assay buffer, 25 μL membranes (2.5 μg) suspended in assay buffer, 25 μL agonist in assay buffer, and 25 μL tracer (about 40000 cpm) in assay buffer. The filled plate is incubated for 1 hour with shaking.
The transfer from assay plate to filter plate is conducted. The blocking buffer is aspirated by vacuum filtration and washed two times with flush buffer. 90 μL is transferred from the assay plate to the filter plate. The 90 μL transferred from assay plate is aspirated and washed three times with 200 μL flush buffer. The plastic support is removed. It is dried for 1 hour at 60° C. 30 μL Microscint is added. The count is performed.

[1] = Pharmacokinetic profiles of PEGylated peptides in Fisher 344 rats; assay type: in vivo, rat; settings: 100 μg agonist/kg, plasma RIA, mean N = 3
Method: Pharmacokinetic profiles of PEGylated peptides. Healthy Fisher 344 rats (3 animals per group) were injected with 100 μg agonist/kg (agonist amount based on peptide content and dissolved in PBS buffer). Blood samples were drawn 3, 12, 24, 48, 72, 96 and 168 hour post dosing and the peptide content in plasma was analysed by a radio-immunoassay (RIA) directed against the N-terminus of the peptide. PK parameters were then calculated using a model-independent method (WinNonlin Pro, Pharsight Corp., Mountain View, Calif., USA).

C6-HSDAVFTEQY(OMe)TOrnLRAibQLAAbuAibOrnYLQAibC(PEG40K)OrnOrnGGPSSGAPPPS-NH2 (HSDAVFTEQYTXLRXQLAXXXYLQXCXXGGPSSGAPPPS; C6 acyl, PEG40K on Cys, C-terminal amide; Synthetic sequence PEGylated VPAC2 receptor agonist) [Agonist P541]
IC50 (Human VPAC1 Receptor): > 25000 nM

C6-HSDAVFTEQY(OMe)TOrnLRAibQLAAbuAibOrnYLQAibIOrnOrnGGPSSGAPPPC(PEG20K)C(PEG20K)-NH2 (HSDAVFTEQYTXLRXQLAXXXYLQXIXXGGPSSGAPPPCC; C6 acyl, two PEG20K, C-terminal amide; Synthetic sequence PEGylated VPAC2 receptor agonist) [Agonist P517]
IC50 (Human VPAC1 Receptor): > 25000 nM

C6-HSDAVFTEQY(OMe)TOrnLRAibQVAAAibC(PEG40K)YLQSIOrnOrnGGPSSGAPPPS-NH2 (HSDAVFTEQYTXLRXQVAAXCYLQSIXXGGPSSGAPPPS; C6 acyl; PEG40K; non-natural residues; amide; Synthetic sequence PEGylated VPAC2 receptor peptide agonist) [Agonist P460]
IC50 (Human VPAC1 Receptor): > 25000 nM

C6-HSDAVFTEQY(OMe)TOrnLRAibQVAAAibOrnYLQSK(WPEG40K)OrnOrnGGPSSGAPPPS-NH2 (HSDAVFTEQYTXLRXQVAAXXYLQSXXXGGPSSGAPPPS; C6 acyl, PEG40K on Lys, C-terminal amide; Synthetic sequence PEGylated VPAC2 receptor agonist) [Agonist P535]
IC50 (Human VPAC1 Receptor): > 25000 nM

C6-HSDAVFTEQY(OMe)TOrnLRAibQVAAAibOrnYLQSIOrnK(CO(CH2)2SPEG20K)OrnGGPSSGAPPPC(PEG20K)-NH2 (HSDAVFTEQYTXLRXQVAAXXYLQSIXXXGGPSSGAPPPC; C6 acyl, two PEG20K, C-terminal amide; Synthetic sequence PEGylated VPAC2 receptor agonist) [Agonist P499]
IC50 (Human VPAC1 Receptor): > 25000 nM | AUC0-last [1]: 6.65 µg·h/mL | Cl/F [1]: 0.015 L/h/kg | Cmax [1]: 0.132 µg/mL | Tmax [1]: 24 h | T½ [1]: 25 h

C6-HSDAVFTEQY(OMe)TOrnLRAibQVAAAibOrnYLQAibIOrnOrnGGPSSGAPPPC(PEG40K)-NH2 (HSDAVFTEQYTXLRXQVAAXXYLQXIXXGGPSSGAPPPC; C6 acyl, PEG40K on Cys, C-terminal amide; Synthetic sequence PEGylated VPAC2 receptor agonist) [Agonist P509]
IC50 (Human VPAC1 Receptor): > 25000 nM

C6-HSDAVFTEQY(OMe)TOrnLRAibQVAAAibOrnYLQSIOrnK(WPEG40K)OrnGGPSSGAPPPS-NH2 (HSDAVFTEQYTXLRXQVAAXXYLQSIXXXGGPSSGAPPPS; C6 acyl; PEG40K; non-natural residues; amide; Synthetic sequence PEGylated VPAC2 receptor peptide agonist) [Agonist P454]
IC50 (Human VPAC1 Receptor): > 25000 nM

C6-HSDAVFTEQY(OMe)TOrnLRAibQVAAAibK(W-PEG40K)YLQSIOrnOrnGGPSSGAPPPS-NH2 (HSDAVFTEQYTXLRXQVAAXXYLQSIXXGGPSSGAPPPS; C6 acyl; PEG40K; non-natural residues; amide; Synthetic sequence PEGylated VPAC2 receptor peptide agonist) [Agonist P410]
IC50 (Human VPAC1 Receptor): > 25000 nM
